The text below walks through data of doi:10.1101/2021.07.14.452313.

This test deals with biotinylated hACE2-fc (residues 18-740) (human) (UniProt Q9BYF1). Briefly: SPR. On the technique in general: In SPR one partner is held on a chip, and binding of the other changes the refractive index at the surface.
UniProt Q9BYF1, sequence (Q9BYF1 18-740): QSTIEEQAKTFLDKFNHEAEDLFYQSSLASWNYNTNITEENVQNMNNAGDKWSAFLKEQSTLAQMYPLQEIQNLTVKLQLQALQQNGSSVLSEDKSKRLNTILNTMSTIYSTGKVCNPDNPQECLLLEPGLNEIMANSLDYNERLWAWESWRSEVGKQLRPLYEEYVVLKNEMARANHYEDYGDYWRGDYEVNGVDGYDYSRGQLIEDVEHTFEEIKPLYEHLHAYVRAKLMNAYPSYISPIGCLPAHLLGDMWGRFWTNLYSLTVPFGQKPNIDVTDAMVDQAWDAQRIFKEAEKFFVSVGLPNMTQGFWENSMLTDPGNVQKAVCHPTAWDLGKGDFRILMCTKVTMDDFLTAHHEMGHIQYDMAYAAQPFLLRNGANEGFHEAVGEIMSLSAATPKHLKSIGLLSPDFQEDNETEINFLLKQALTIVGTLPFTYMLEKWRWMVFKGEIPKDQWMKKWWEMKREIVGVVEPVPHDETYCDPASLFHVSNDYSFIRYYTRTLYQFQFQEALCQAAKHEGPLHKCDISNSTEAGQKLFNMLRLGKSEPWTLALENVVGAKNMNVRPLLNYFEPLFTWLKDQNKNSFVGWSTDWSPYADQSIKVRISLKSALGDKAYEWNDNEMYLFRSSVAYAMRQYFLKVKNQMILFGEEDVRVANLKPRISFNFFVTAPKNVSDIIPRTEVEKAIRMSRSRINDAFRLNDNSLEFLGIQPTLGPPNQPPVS

Regarding “SARS-CoV-2 wt trimeric spike protein (domain or fragment)”, the KD1 (first step, two state fit) stood at 1.8 nM; the dissociation constant (Kd) (commonly a measure of binding affinity in units of concentration) is 0.041 nM; the ka1 (first step, two state fit) turned out to be 782000 M⁻¹ s⁻¹; the ka2 (second step, two state fit) came out at 0.0105 M⁻¹ s⁻¹. This substance showed a kd1 (first step, two state fit) of 0.00141 s⁻¹ and a kd2 (second step, two state fit) of 0.000244 s⁻¹.
As for “SARS-CoV-2 B.1.1.7 trimeric spike protein (domain or fragment)”, the KD1 (first step, two state fit) was found to be 193 nM; the dissociation constant Kd worked out at 0.04 nM; the ka1 (first step, two state fit) was 1.31e+06 M⁻¹ s⁻¹; the ka2 (second step, two state fit) was determined as 0.053 M⁻¹ s⁻¹. This substance also displayed a kd1 (first step, two state fit) of 0.025 s⁻¹ and a kd2 (second step, two state fit) of 0.00011 s⁻¹.
